As a reminder, the Kd is a measure of binding affinity in units of concentration. A low value points to a tighter complex.

Test [1] deals with T1, human NTR1 (human, UniProt P30989 1-418). Kind of test: cell-based or functional assay.
Test [2] deals with T1, human NTR1. Kind of test: radiolabeled competitive binding assay, CHO cells expressing human NTR (repeats Table II). The procedure:
(§1) For binding assays, crude membranal preparations were prepared by centrifugation of the cellular pellet at 35,600×g for ten minutes. The supernatant was decanted and discarded, and the cellular pellet was resuspended in 2 mL of Tris-HCl, 1 mM EDTA (pH 7.4) followed by homogenization with a Brinkmann Polytron at setting 6 for ten seconds. Centrifugation was repeated as above and the supernatant was decanted and discarded. The resulting final cellular pellet was resuspended in 50 mM Tris-HCl, 1 mM EDTA, 0.1% bovine serum albumin, and 0.2 mM bacitracin.
(§2) Incubation was at 20° C. for 30 minutes. Each reaction was terminated by addition of cold 0.9% NaCl (5×1.5 mL) followed by rapid filtration through a GF/B filter strip that had been pretreated with 0.2% polyethylenimine.

The target in test [3] is T2, rat NTR1 (rat, UniProt P20789 1-424). Put plainly: competition with [3H]NT, membranes of CHO-K1 cells expressing rat NTR1. The procedure:
as §1, §2

Test [4] deals with T2, rat NTR1. Kind of test: radiolabeled competitive binding assay, CHO cells expressing rat NTR (repeats Table II). The procedure:
as §1, §2

Test [5] addresses T3, 5HT2A receptor in human brain tissue (human, UniProt P28223 1-471).
T3 construct: whole, on cells; Native receptor in human brain tissue, labeled with [3H]ketanserin; also called serotonin receptor
Kind of test: competition with [3H]ketanserin, human brain tissue.

Test [6] deals with T1, human NTR1. Put plainly: competition with [3H]NT, membranes of CHO-K1 cells expressing human NTR1.
Test [7] deals with T2, rat NTR1. Kind of test: cell-based or functional assay.
For test [8], the target named is Dopamine receptors, human brain tissue (human) (UniProt P14416). Put plainly: radiolabeled competitive binding assay, human brain tissue.
Sequence of Dopamine receptors, human brain tissue (human) (P14416 whole entry): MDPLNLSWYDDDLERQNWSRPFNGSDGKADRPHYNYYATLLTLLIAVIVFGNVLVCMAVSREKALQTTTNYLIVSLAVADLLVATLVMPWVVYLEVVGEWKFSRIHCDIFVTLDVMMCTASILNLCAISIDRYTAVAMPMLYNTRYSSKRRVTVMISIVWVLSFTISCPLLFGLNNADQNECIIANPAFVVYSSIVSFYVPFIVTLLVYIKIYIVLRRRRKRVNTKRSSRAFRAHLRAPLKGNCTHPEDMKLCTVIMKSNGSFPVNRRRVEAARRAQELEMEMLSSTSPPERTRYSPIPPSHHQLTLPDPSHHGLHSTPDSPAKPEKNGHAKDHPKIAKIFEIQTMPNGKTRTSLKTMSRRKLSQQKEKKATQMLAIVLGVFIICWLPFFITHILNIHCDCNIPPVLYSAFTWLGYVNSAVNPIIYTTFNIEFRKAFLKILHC
Test [9] addresses adrenergic α2 receptors, human brain tissue (human). The test is described as above.
Test [10] deals with NT binding sites within rat brain (PAG and rest of brain homogenates) (rat). Put plainly: 0.3 nM [125I]NT binding to rest-of-brain homogenate of NT69L-treated rats.
For test [11] the target is unchanged. Put plainly: 0.3 nM [125I]NT binding to PAG homogenate of NT69L-treated rats.
For test [12] the target is unchanged. Kind of test: 0.3 nM [125I]NT binding to PAG homogenate of control rats.
For test [13], the target named is T1, human NTR1. Put plainly: cell-based or functional assay. This is another data set of the same source.
Test [14] has as its target T1, human NTR1. Put plainly: competition with [3H]NT, membranes of CHO-K1 cells expressing human NTR1. The procedure: as §1, §2
Test [15] deals with adrenergic α1 receptors, human brain tissue (human). Kind of test: radiolabeled competitive binding assay, human brain tissue.
Test [16] addresses T1, human NTR1. Kind of test: competition with [3H]NT, CHO-K1 membranes; receptor not given, human fits Table II. The procedure:
as §1, §2

Test [17] addresses T1, human NTR1. Put plainly: competition with [3H]NT, CHO-K1 membranes; receptor not given, human taken from the context. The procedure: as §1, §2
The target in test [18] is T1, human NTR1. Put plainly: cell-based or functional assay. The source holds these as a separate data set.

Read-outs that look alike come from different tables or passages of the source. Numbered stars: 1 amine (or outer) side, 2 acyl side, 3 side chain; on linkers, the order of the positions; unused ones are H or OH. Square brackets hold non-standard residues; d marks the D form. Ends that are not written are not given here. dneoTrp = D-neo-Trp, (2R)-2-amino-3-(1H-indol-4-yl)propanoic acid, O=C([C@@H](Cc1cccc2[nH]ccc12)N[*:1])[*:2]; Ala(indol-4-yl) = N[C@@H](Cc1cccc2[nH]ccc12)C(=O)O; 1Nal = N[C@@H](Cc1cccc2ccccc12)C(=O)O; NMeR = CN[C@@H](CCCNC(=N)N)C(=O)O; Tle = CC(C)(C)[C@H](N)C(=O)O Bounds are passed on as bounds.

T1 sequence (P30989 whole entry): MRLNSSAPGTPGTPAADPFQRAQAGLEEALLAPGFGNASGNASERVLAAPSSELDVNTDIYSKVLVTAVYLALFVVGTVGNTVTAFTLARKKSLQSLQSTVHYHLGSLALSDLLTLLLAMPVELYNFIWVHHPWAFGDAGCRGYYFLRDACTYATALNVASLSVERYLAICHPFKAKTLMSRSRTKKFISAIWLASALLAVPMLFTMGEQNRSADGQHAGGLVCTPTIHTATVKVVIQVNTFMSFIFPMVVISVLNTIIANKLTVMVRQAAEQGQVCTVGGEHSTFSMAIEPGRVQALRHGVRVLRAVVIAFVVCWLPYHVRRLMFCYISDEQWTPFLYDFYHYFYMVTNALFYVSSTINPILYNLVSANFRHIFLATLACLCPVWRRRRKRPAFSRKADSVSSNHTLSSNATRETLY
T3 sequence (P28223 whole entry): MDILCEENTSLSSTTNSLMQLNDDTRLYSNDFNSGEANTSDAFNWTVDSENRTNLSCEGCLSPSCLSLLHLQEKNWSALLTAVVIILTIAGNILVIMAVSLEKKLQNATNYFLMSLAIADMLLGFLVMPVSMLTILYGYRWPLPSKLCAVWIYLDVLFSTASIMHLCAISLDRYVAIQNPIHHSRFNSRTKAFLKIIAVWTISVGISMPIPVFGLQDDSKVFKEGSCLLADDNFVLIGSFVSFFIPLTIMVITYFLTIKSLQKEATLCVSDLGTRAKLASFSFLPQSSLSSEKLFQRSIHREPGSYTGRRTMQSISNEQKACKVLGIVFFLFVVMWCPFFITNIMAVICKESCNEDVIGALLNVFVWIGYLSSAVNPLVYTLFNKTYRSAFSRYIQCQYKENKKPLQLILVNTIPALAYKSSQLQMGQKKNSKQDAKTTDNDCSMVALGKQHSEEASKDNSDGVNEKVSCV
T2 sequence (P20789 whole entry): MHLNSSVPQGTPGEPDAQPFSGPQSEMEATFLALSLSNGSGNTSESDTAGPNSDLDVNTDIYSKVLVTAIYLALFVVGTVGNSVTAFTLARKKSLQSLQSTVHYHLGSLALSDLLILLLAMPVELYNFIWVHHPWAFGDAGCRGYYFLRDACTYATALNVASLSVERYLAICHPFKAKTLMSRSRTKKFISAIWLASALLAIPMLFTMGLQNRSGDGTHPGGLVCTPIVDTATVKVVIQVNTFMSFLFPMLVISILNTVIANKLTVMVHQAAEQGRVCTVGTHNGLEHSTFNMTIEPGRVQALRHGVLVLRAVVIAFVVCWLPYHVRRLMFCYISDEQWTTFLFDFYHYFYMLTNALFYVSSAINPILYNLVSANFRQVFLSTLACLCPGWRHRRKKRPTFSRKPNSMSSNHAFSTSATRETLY

As for NT69L (peptide), the PI Turnover EC50 amounted to 2.3 nM with human NTR1 [1] and 1.34 nM in the test with rat NTR1 [7]. Also, the PI turnover potency, fold improvement over Eisai analog with human NTR1 [1] was found to be 130 fold; with rat NTR1 [7] it was 2 fold. Moreover, the Kd with human NTR1 [2] was 1.55 nM; with rat NTR1 [3] it was 0.82 nM; with rat NTR1 [4], 0.82 nM; in test [5] it was 34600 nM; with human NTR1 [6] it was 1.55 nM; in test [8], 13300 nM. In test [9], this molecule gave a Kd of 58600 nM. For the same molecule, the fold increase in binding affinity over Eisai in the test with rat NTR1 [3] came to 6 fold; in the test with human NTR1 [6] it was 60 fold.
For Neurotensin (NT) (peptide), the dpm/µg protein (dpm/µg protein) amounted to 2.1 in test [10], 1.89 in test [11] and 2.34 in [12].

B1: NT(9-13) (peptide)
peptide: RPYIL
notes: Synthetic pentapeptide, residues 9-13 of neurotensin
On to B1, for which the results for the Kd (with rat NTR1 [3]; in test [5]; with human NTR1 [14]) were 46 nM, 6340 nM and 30 nM, respectively. In addition, the “fold weaker than NT(8-13)” value with rat NTR1 [3] and in the test with human NTR1 [14] was above 200 fold throughout. Also, in the test with human NTR1 [13], the “PI Turnover EC50” value is 380 nM.
Consider [dK]RP[Ala(indol-4-yl)]IL (NT(8-13) analog) [NT67L], for which the equilibrium dissociation constant (Kd) was 0.21 nM in the test with rat NTR1 [3], 0.21 nM with rat NTR1 [4], 7400 nM in test [5] and 6900 nM in [15]. In the test with rat NTR1 [7], the “PI Turnover EC50” value amounted to 13 nM.
Turning to RRP[1Nal]IL (NT(8-13) analog) [NT34], the dissociation constant (Kd) in the test with rat NTR1 [3] was determined as 0.046 nM.
The same measure, in the same setting: as for RRP[dneoTrp]IL (NT(8-13) analog) [NT64D], the figure is 3.8 nM.
On to RRP[Ala(indol-4-yl)][Tle]L (NT(8-13) analog) [NT65L], for which the Kd is 0.075 nM in the test with rat NTR1 [3] and 0.32 nM with human NTR1 [14]. Also, the “fold decrease in binding affinity compared to NT64L” value with human NTR1 [16] was found to be 3 fold.
For RRP[Ala(indol-4-yl)]IL (NT(8-13) analog) [NT64L], the dissociation constant Kd was found to be 0.1 nM in the test with rat NTR1 [3] and 6600 nM in test [5]. Further, the “PI Turnover EC50” value with rat NTR1 [7] stood at 2.3 nM.

B2: NT(8-13) (peptide)
peptide: RRPYIL
notes: Synthetic hexapeptide, residues 8-13 of neurotensin
B2 yielded a Kd in test [5] of 4400 nM.
As for RRPWIL [NTW], the figures for the equilibrium dissociation constant (Kd) in the test with rat NTR1 [3] and in the test with human NTR1 [14] were 0.34 nM and 3.2 nM, respectively. Further, in the test with human NTR1 [13], the “PI Turnover EC50” value was 110 nM. Besides, the “fold reduction in binding affinity compared to NT64L” value in the test with human NTR1 [17] is above 30 fold.

B3: Eisai (peptide)
peptide: [NMeR]KPW[Tle]L
notes: Hexapeptide N-methyl-Arg, L-Lys, L-Pro, L-Trp, tert-Leu, L-Leu (Tsuchiya et al., EP application 89104302.8); also called Eisai compound; Eisai analog
On to B3, for which the Kd with rat NTR1 [3] is 5.4 nM; with human NTR1 [14] it was 95 nM. Also, the “PI Turnover EC50” value amounted to 3.1 nM in the test with rat NTR1 [7] and 300 nM with human NTR1 [13]. In the test with human NTR1 [18], the “PI turnover potency, fold weaker at human than at rat NT receptor” value was around 100 fold. Further, the “fold weaker than at the rat receptor” value with human NTR1 [14] is around 20 fold.
[dK]RPYIL (NT(8-13) analog) [NT2]: the dissociation constant (Kd) with rat NTR1 [3] stood at 0.8 nM; in [5], 6800 nM.

Values taken from patent US7642231 (MAYO FOUNDATION FOR MEDICAL EDUCATION AND RESEARCH A …, dated 2010).
